From the supplement of paper PMC10567573

B1: POMT2 (parent)
chain: VLRSRIRFIHLVTGCVLGSSGKVL
B2: ZNF263 (parent)
chain: FAHSSNLLRHQRIHTGERPYKCPE

Variants of: B1
Assay: protein stability index of a GFP-peptide fusion (GPS, HEK-293T) (PSI 1-6); higher = more stable
Conditions: c terminus: a fixed tail appended
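Note: lentivirally expressed fusions sorted by FACS into six bins by GFP to DsRed ratio, PSI derived from sequencing read proportions per bin multiplied by bin number.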

Protein stability index, by site and new letter:
I6: D 1.89, K 2.08, V 3.12, H 2.53, F 3.11, T 1.3, P 3.19, M 2.88, S 1.83, R 1.78, L 2.83, C 4.38, A 1.64, E 2.45, Y 3.93, G 2.81
R3: Y 2.82, P 3.15, L 2.04, V 2.18, F 2.27, G 3.29, A 1.24, T 2.65, C 2.14, H 2.39, S 3.27, N 2.43, M 3.2, I 3.85, E 2.31
R7: L 2.52, Y 2.4, G 2.67, P 2.44, V 2.05, N 2.44, K 3.58, W 2.28, T 3, A 3.22, H 3.62, C 2.94, E 2.94, M 3.48, D 1.59
S4: Q 3.06, I 2.53, K 3.75, R 2.66, Y 3.18, T 3.04, D 2.56, H 2.09, F 2.29, E 2.36, L 3.33, V 2.38, N 4.14
V1: M 3.35, K 2.88, N 3.04, T 3, G 1.39, I 2.76, R 1.96, H 2.8, W 1.4, A 2.38, Y 2.51, L 2.15, E 2.61, P 3.01, D 2.88, S 3.21
L2: N 2.4, K 3.28, E 1.06, A 3.86, R 3.38, Q 3.47, F 2.75, M 2.49, I 2.71, P 1.76, D 3.93, V 2.83, C 2.48, H 2.81, S 2.72
I9: C 1.74, E 2.34, A 4.43, D 1.63
F8: Q 1.67, G 1.66, D 1.88, V 2.68, E 1.76, C 3.6, A 1.04, N 1.9, W 2.35, R 2.11, S 1.57, T 2.35, I 3.13, H 2.79, P 1.48, K 2.4
R5: T 1.99, P 3.07, H 2.82, L 3.1, S 1.06, F 2.21, N 2.48, D 2.67, G 2.25, V 2.4, I 2.1, E 2.83, W 2.14, M 2.92, Y 2.99

Variants of: B2
Assay: as above
Conditions: c terminus: a fixed tail appended

Protein stability index of substitutions, site by site:
C22: D 3.74, Q 2.9, M 2.26, I 2.06, E 3.37, F 2.08, A 3.1, G 2.36, V 2.13, P 2.58, S 3.48, W 2.08, N 2.95, H 2.8, L 2.25, R 2.29, K 2.15, Y 2.44, T 2.03
T15: Q 2.19, I 2.29, C 1.95, W 1.6, L 2.36, F 2.58, G 2.19, H 2.12, R 2.5, P 1.87, Y 2.23, V 2.68, D 2.56, M 2.36, N 2.36, E 2.24, K 1.99, S 2.65, A 1.97
P19: D 3.71, V 2.67, F 2.74, S 2.69, I 2.38, L 2.65, T 3.02, A 2.54, W 1.83, N 2.75, M 3.05, Q 3.17, R 2.9, H 2.89, G 2.59, K 3.02, Y 2.58, C 2.48, E 3.67
P23: D 2.47, Y 2.5, L 2.12, Q 3, N 2.56, S 2.41, A 2.54, H 2.36, K 2.52, G 2.82, W 2.2, V 1.87, F 2.11, I 2.58, R 1.95, M 2.2, E 2.67, C 1.64, T 2.29
G16: C 2.36, T 2.56, D 2.77, Q 2.01, R 1.57, Y 1.93, P 2.37, F 1.37, I 2.22, E 2.67, V 2.1, W 1.32, H 2.02, S 1.97, L 2.07, K 2.23, N 2.43, M 1.88, A 2.37
Y20: H 3.23, W 2.75, Q 3.48, P 3.02, E 3.68, T 3.38, K 3.43, S 3.31, L 2.81, F 2.77, D 3.46, R 2.91, V 3.48, A 3.51, N 3.29, I 2.63, G 3.32, C 2.37, M 2.72
E17: M 1.98, C 1.65, G 1.81, Q 2.86, Y 1.47, D 1.91, H 2.47, I 2.29, W 2.16, L 2.04, F 1.95, S 2.29, R 1.95, N 1.8, K 1.44, T 2.19, V 2.44, A 2.31, P 2.63
R18: I 2.21, T 2.27, Q 2.36, E 3.36, K 2.09, N 2.45, L 2.39, S 2.35, F 2.16, Y 1.86, V 2.46, P 2.45, C 2.23, D 3.28, A 2.68, M 2.2, G 2.54, W 2.66, H 2.52
K21: W 2.64, M 2.07, I 2.6, V 2.65, H 2.49, F 2.56, E 2.79, N 3.13, R 1.97, L 2.4, Y 2.81, D 2.62, A 2.41, P 2.51, T 2.83, Q 2.3, G 2.21, S 2.29, C 2.56
H14: S 2.46, W 3.6, Q 2.98, I 2.57, R 2.18, E 2.73, Y 1.9, L 2.57, V 2.34, C 3.21, G 2.59, M 3, A 2.99, P 3.05, K 2.08, N 2.71, D 2.81, T 1.91, F 2.16
E24: P 1.87, N 1.88, V 1.56, Q 2.33, A 1.89, L 1.48, H 2.16, M 2.4, D 2.44, F 1.59, T 1.87, K 2.46, R 2.15, Y 2.28, C 1.56, S 1.84, G 1.92, W 2.72, I 1.7
